This is an account of results in paper PMC3568255 (Protein expression and purification, 2012).

For data set [1], the target named is MBP-CLR ECD-H6:RAMP2 ECD-H6 complex (recombinant AM receptor ECD complex) (human, UniProt Q16602 29-144; O60895 36-140). As to the kind of experiment: AlphaScreen or HTRF.
Data set [2] concerns the molecule itself. Description: SEC. Background: Size exclusion chromatography separates by hydrodynamic size, large species first.

The stoichiometry N is a count of units in the complex or per binding partner.

*: point of attachment. Biotin = O=C1N[C@H]2[C@H](CS[C@H]2CCCCC(=O)*)N1

MBP-CLR ECD-H6:RAMP2 ECD-H6 complex (recombinant AM receptor ECD complex), sequence (Q16602 29-144, one chain of several): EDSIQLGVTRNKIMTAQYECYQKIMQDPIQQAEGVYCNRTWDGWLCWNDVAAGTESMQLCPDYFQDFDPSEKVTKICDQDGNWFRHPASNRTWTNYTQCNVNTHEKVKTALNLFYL

B1: B-AM(19–52)NH2[C21A] (peptide)
peptide: Biotin-GTATVQKLAHQIYQFTDKDKDNVAPRSKISPQGY-NH2
SMILES: CC[C@H](C)[C@H](NC(=O)[C@H](CCC(N)=O)NC(=O)[C@H](Cc1c[nH]cn1)NC(=O)[C@H](C)NC(=O)[C@H](CC(C)C)NC(=O)[C@H](CCCCN)NC(=O)[C@H](CCC(N)=O)NC(=O)[C@@H](NC(=O)[C@@H](NC(=O)[C@H](C)NC(=O)[C@@H](NC(=O)CNC(=O)CCCC[C@@H]1SC[C@@H]2NC(=O)N[C@@H]21)[C@@H](C)O)[C@@H](C)O)C(C)C)C(=O)N[C@@H](Cc1ccc(O)cc1)C(=O)N[C@@H](CCC(N)=O)C(=O)N[C@@H](Cc1ccccc1)C(=O)N[C@H](C(=O)N[C@@H](CC(=O)O)C(=O)N[C@@H](CCCCN)C(=O)N[C@@H](CC(=O)O)C(=O)N[C@@H](CCCCN)C(=O)N[C@@H](CC(=O)O)C(=O)N[C@@H](CC(N)=O)C(=O)N[C@H](C(=O)N[C@@H](C)C(=O)N1CCC[C@H]1C(=O)N[C@@H](CCCNC(=N)N)C(=O)N[C@@H](CO)C(=O)N[C@@H](CCCCN)C(=O)N[C@H](C(=O)N[C@@H](CO)C(=O)N1CCC[C@H]1C(=O)N[C@@H](CCC(N)=O)C(=O)NCC(=O)N[C@@H](Cc1ccc(O)cc1)C(N)=O)[C@@H](C)CC)C(C)C)[C@@H](C)O
B1: in data set [1], the binding result is reported as “binds”.

B2: RAMP2 ECD-H6 (RAMP2.36-140-H6), isolated extracellular domain of receptor activity modifying protein 2 (domain or fragment, human, UniProt O60895 36-140, looked up)
chain: NPHEALAQPLPTTGTPGSEGGTVKNYETAVQFCWNHYKDQMDPIEKDWCDWAMISRPYSTLRDCLEHFAELFDLGFPNPLAERIIFETHQIHFANCSLVQPTFSD
Regarding B2, the “stoichiometry N” value in data set [2] worked out at 3.
